According to patent US20240376224A1 (University of California, published 2024):

Assays:
His-TEV-CUB1 = target: T1, His-TEV-CUB1 (human, UniProt Q9H5V8 30-367); assay: sandwich ELISA, CL03 as capture antibody, antigen titrated (ng/mL), anti-CDCP1 polyclonal antibody for detection
T1 construct: also called CUB1 (His-TEV-CUB1, soluble NTF); not shown: His tag and TEV site
T1 sequence: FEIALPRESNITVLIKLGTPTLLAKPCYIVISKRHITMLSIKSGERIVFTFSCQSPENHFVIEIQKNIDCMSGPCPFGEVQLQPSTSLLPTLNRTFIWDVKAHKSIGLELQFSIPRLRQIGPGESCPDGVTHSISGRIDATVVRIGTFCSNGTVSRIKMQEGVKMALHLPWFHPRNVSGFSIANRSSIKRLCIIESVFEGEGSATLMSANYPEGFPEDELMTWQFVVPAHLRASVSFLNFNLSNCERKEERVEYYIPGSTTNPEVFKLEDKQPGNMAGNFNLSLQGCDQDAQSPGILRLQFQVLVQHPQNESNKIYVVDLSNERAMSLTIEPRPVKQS
Procedure: (§1) CUB1 N-terminal fragment (NTF) is present only in human serum. Since CL03 binds to an epitope on CUB1 domain that is exposed upon proteolysis, CUB1 (NTF) would serve as a sink to CL03 that decreases the viable concentration of CL03 on tumor site if it binds to CUB1 only in human serum. To further investigate the binding mechanism of CL03, an ELISA experiment was performed in which the binding of CL03 to CUB1 in human serum was evaluated. ELISA assays were performed as generally described in Example 1. Briefly, either IgG CL03 or 4A06 was used as the capture antibody; the target antigens evaluated were as presented in Table 9 below; and an anti-CDCP1 polyclonal Ab was used as the detection antibody (R&D: Cat. #AF2666).

His-CUB1 = target: T2, His-CUB1 (human, UniProt Q9H5V8 30-367, limits assumed); assay: as above
T2 construct: also called CUB1 (His-CUB1, soluble NTF); not shown: His tag
T2 sequence: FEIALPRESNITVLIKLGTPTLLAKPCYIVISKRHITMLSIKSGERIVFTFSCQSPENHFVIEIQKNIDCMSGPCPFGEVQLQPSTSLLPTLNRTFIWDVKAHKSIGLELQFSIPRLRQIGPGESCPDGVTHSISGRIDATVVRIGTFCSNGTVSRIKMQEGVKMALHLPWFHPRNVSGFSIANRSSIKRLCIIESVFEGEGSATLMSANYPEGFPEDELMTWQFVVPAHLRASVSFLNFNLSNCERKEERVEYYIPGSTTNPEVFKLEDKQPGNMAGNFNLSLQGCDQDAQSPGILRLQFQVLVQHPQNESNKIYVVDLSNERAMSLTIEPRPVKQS
Procedure: as §1

[1] = target: T3, soluble CUB1 (NTF) used as competitor (human, UniProt Q9H5V8 30-367, limits assumed); assay: flow cytometry competition: CUB1-His (NTF) titrated against 100, 50 or 0 nM IgG CL03 on cleaved CDCP1 positive cells
T3 sequence: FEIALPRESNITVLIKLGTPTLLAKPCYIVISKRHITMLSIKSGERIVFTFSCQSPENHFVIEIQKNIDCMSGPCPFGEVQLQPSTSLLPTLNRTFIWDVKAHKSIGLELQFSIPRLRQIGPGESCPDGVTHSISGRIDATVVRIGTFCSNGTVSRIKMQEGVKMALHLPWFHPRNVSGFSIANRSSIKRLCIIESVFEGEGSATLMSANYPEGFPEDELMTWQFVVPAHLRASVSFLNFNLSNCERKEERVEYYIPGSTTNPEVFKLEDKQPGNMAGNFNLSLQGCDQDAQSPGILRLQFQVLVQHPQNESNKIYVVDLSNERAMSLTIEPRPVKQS
Procedure: To further evaluate the recognition of cleaved CDCP1 on cancer cells by CL03, a competition assay was performed to evaluate whether soluble CUB1 (NTF) could compete with the binding of CL03 on cleaved CDCP1 positive cells. […] Primary Ab (CL03 IgG) and different concentrations of CUB1 (NTF) were added to cells for 30 minutes at 4° C. Bound Abs were detected with addition of AlexaFluor-488 conjugated Goat anti-human IgG, F(ab′)2 fragment specific (Jackson ImmunoResearch: 1:1000). Cells were washed 3× with PBS+3% BSA and fluorescence was quantified using a CytoFLEX (Beckman Coulter) flow cytometer. All flow cytometry data analysis was performed using FlowJo software and Prism software (GraphPad).

binding result (His-TEV-CUB1): no binding (tested: 1000 ng/mL) | binding result (His-CUB1): no binding (tested: 1000 ng/mL) | binding result [1]: no binding (tested: about 800 nM)
B1: CL03 IgG (antibody, V domains shown)
VH: EVQLVESGGGLVQPGGSLRLSCAASGFNFSSYSIHWVRQAPGKGLEWVASIYPYSGSTYYADSVKGRFTISADTSKNTAYLQMNSLRAEDTAVYYCARQSHSYYSHTWWVSYGMDYWGQGTLVTVSS
VL: DIQMTQSPSSLSASVGDRVTITCRASQSVSSAVAWYQQKPGKAPKLLIYSASSLYSGVPSRFSGSRSGTDFTLTISSLQPEDFATYYCQQSGQRPITFGQGTKVEIKR
notes: also called IgG CL03
